# In the nanobody polyreactivity screen of Harvey et al. (2022):
# Test: yeast display, Sf9 membrane polyspecificity reagent, FACS + sequencing; frameworks hold sequencing errors
# Outline: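 Nanobodies from a synthetic yeast display library (Saccharomyces cerevisiae BJ5465), induced 36–48 hours with galactose, were stained 1 hour at 4 °C with 10% biotinylated, detergent-solubilized Sf9 membrane reagent, enriched on streptavidin microbeads, then FACS-sorted. Anti-HA (expression) and streptavidin (reagent binding) fluorescence set low and high (top ~1%) gates. Polyreactivity labels come from the gate of origin. Genes were colony-PCR amplified, MiSeq 2 × 250 sequenced and filtered by CDR length.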
row,Sequence,polyreactivity (PSR sort gate)
1,QVQLVESGGGLVQAGGSHRLSCAPSGFTLADYTMAWYRPAPGKERELVAAITSGASTYYADSVKGRFTISRDNAKNTVYLQMNSLKPEDTAGYYCAARNDYYNTFSGYDYWGQGTQVTVSS,low polyreactivity
2,QVQLVESGGGLVQAGGSHRLSSAASGNTFGINAMGWYRQAPGKERELVASISFTGSSTYYADSVKGRFTISRDNAKNTVYLQMNSLKPEDTAVYYCNRDRITLYEYDYWGQGTQVTVSS,low polyreactivity
3,QVQLVESGGGLVQAGGSIPLTCAASGRTLWGYAMGWYSQAPGKEREMVAAITSGGSTYYADSVKGRFTISRDNAKYYVYLQMNSLKPEDTAVDYCNAVTSIQTSYPSNWGMMDYWGQGSQVTVSS,low polyreactivity
4,QVQLVESGGGLVQAGGSIRLICAASGSIFRLYAKGWYRQAPGKEREFVAAISSRGGSTYYADSVKGRFTISRDKAKNTVYLEMNSLKPEDSAVDYCAVYGYHEGGYWGQGTQVTVSS,high polyreactivity
5,QVQLVESGGGLVQAGGSIRLSCAASGFIFGLYDMGWYRQAPGKERELDAAISWSGGSTYYADSVKGRFTISRDNAKNTVYLQMNSLKPEDTAVYYCNKDLYADGEYNYDYWGQGTQVTVSS,low polyreactivity
6,QVQLVESGGGLVQAGGSIRLSCAASGFIFYYNPMGWSRQEPGIERELVADITSGRSTYYADSVKGRFTISRDNAKISVYLQLNSLKPEDTAVIYCAVDYDQFGSDEELPPGSDYWGQGTQVTVSS,low polyreactivity
7,QVQLVESGGGLVQAGGSIRLSCAASGFTFRSYTMGWYRQAPGKESELVAAITSRGTSTYYADSVKGRFTIPRDNAKNAVYLQMNSLKPEDTAVYYCNADGTRYAGDDYWGQGTQVTVSS,high polyreactivity
8,QVQLVESGGGLVQAGGSIRLSCAASGIIFDTYAMGWYRQAPGKERELVAVISASGGSTYYADSVKGRFTISRDNAKNTVYLQMNSLKPEDTAVYYCAARHSLYGYWGQGTQVTVSS,high polyreactivity
9,QVQLVESGGGLVQAGGSIRLSCAASGLTLIVNSMGWYRQAPGKERDLVASITIGGTTYADSVKGRFTISRDNAKNTVYLQMNSLKTEVTAVYYCAADYSSFSIDTGYDYWGQGTQVTVSS,low polyreactivity
10,QVQLVESGGGLVQAGGSIRLSCAASGRIFIYNVMGWYRQAPGKERELVATISTGGTTNYADSVKGRFTISRDNAKNTVYLQMNSLKPEETAVYYCIRGSGYWYLPAVKYDHWGQGTQVTVSS,low polyreactivity
11,QVQLVESGGGLVQAGGSIRLSCAASGRTFACNSMGCYRQAPGKERELVARIRSSGSTYYADSVKGRFTISRDNAKNTVYLQMNSLKPEDTAVYYCAADIRFWYGYYYWGQGTQVTVSS,high polyreactivity
12,QVQLVESGGGLVQAGGSIRLSCAASGRTFSKYTMGWYRQAPGKERELVAVISRSGTRTYYADSVKGRFTISRDNAKNTVYLQMNSLKAEDTAVYYCAAKDERRSFGMGYWGQGTHVTVSS,high polyreactivity
13,QVQLVESGGGLVQAGGSIRLSCAASGSIFGGYDMGWYRQAPGKERELVSAIDADAGSTYYADSVKGRFTISRDNAKNTVYLQMYSLKPEDTSDDYCGAESYPYFITLYVFTLYGYWGQGTQVTVAS,low polyreactivity
14,QVQLVESGGGLVQAGGSIRLSCAASGSIFVSNAMGWYRQAPGKERELVAAISGGGSTYYADSVKGRFTISRDNAKNTVYLQMNSLKPEDTAVYYCAKKGGHRTYGYDSWGQGTQVTVSS,low polyreactivity
15,QVQLVESGGGLVQAGGSIRLSCAASGSTYFVYTMGWYRQATGQERELVAAISGSGRSTSYADSVKGRFTISRDNAKNTVYLQMNSLKPEDNAVYYCAARSHVYLRGSTFEFNYWGQGTQVTVSS,high polyreactivity
16,QVQLVESGGGLVQAGGSIRLTCAASGSIFKLYAMGWYRQATGKERELVAAISWRGGSTYYADSVKGRFTISRDIAKNTVYLQMNSLKPEDTAVYYCAAEYRQYDYWGQGTQVTVSS,high polyreactivity
17,QVQLVESGGGLVQAGGSIRLTCAASGSTFWEYVMGWYRQAPGKERELVAAINSGGRTYYADSVKGRFTISRDNAKNTVYLQMNSLKPEDTAVYYCAADTVYRTHHYAQHYYYWGQGTQVTVSS,high polyreactivity
18,QVQLVESGGGLVQAGGSLGLSCAASGFTFGHYAMGWYRPAPGKERELVAAISIDGGRTYYADSVKGRFTISRDNAKKTVYLQMNSLKPEDTAVYYCAVPGWVYYTSDYDYWGQGTQVTVSS,high polyreactivity
19,QVQLVESGGGLVQAGGSLGLSCAASGFTFYFYAMGWYRQAPGKERELVAANSRGTSTYYADSVKGRFTISRDNAKKTVYLQMNRLKPEDTAVYYCAARGLWPYDDWGQGTQVTVSS,low polyreactivity
20,QVQLVESGGGLVQAGGSLGLSCAASGRIFWTYAMGWYRQAPGKERELVASITWSGGSTYYADSVKGRFTISRDNANNTDYLQMNSLKPEDTSVYYCNTDVLAPYDSGYWGQGTQVTVSS,low polyreactivity
21,QVQLVESGGGLVQAGGSLGLSCAASGRSFRYYAMGWYIQAPGKERELVAAINWSGGSTYYADSVKGRFTISRDNAKNTVYLHMNRLKPEDTAVYYCNTRWYVGDDWGQGTQVTVSS,high polyreactivity
22,QVQLVESGGGLVQAGGSLGLSCAASGRTFDDYSMGWYRQAPGKEMEFVAGITDNGGGTNYADSVKGRFTISRDNAMNTVYLQMNSLKPEDTAVYYCNAASDDFFPGRSTYGRDYWGQGTQVTVSS,low polyreactivity

row,Sequence,polyreactivity (PSR sort gate)
1,QVQLVESGGGLVQAGGSLGLSCAASGRTFSFYGMGWYRQAPGKERELVAAINSDSRTNYADSVKGRFTISRDNAKNTVYLQMNSLKPEDTAVYYCNAYWYTSTGQYSYEYWGQGTQVTVSS,low polyreactivity
2,QVQLVESGGGLVQAGGSLGLSCAASGRTFTPYAMGWYRQAPGIERELVAAIDTSGGSTYADSVKGRFTMSRDNAKNTVYLQMNSLKQEDTAVYYCNVDSAWYPYETEDDWGQGTQVTVSS,low polyreactivity
3,QVQLVESGGGLVQAGGSLGLSCAASGRTLYRYAMGWYRQARGKERELVAAIRSGGRTNYADSVKGRFTISRDNAKNTVYLQMNSLKPEDTAVYYCAAGTLRYPSTYVDWGQGTQVTVSS,high polyreactivity
4,QVQLVESGGGLVQAGGSLGLSCAASGSIFLRYTLGWYRQAPGKERELVAAISWSGGSTYYADSVKGRFTMSRDNAKNNVYLQMNSLKREDTAVYYCNAVYASWSYPGYDYWGQGTQVTVSS,high polyreactivity
5,QVQLVESGGGLVQAGGSLGLSCAPSGYTFVPYVMGWYRQAPGKERELVAAISRGGSTYYADSVKGRFTISRDHAKNTVYLQMNSLKPEDTAVYYCNAGWFKYYPNLQAFKYWGQGTQVTVSS,high polyreactivity
6,QVQLVESGGGLVQAGGSLGLSSAASGIIFLTYAMGWYSQAPGKDRELVAAINSTGSTNYADSVKGRFTISRDNAKNTVYLQMNSLTPEDTAVYYCAAEGLPYVRVFDFVSRYDYWGQGTQVNVSS,low polyreactivity
7,QVQLVESGGGLVQAGGSLHLSCAASGRIFRVNAMGWYRQAPGKERELVAAISYRGGRTYYADSVKGRFTFSRDNAKNTVYLQMNSLKPEDTAVYYCAAKVWARVDGRQFRMEYWGQGTQVTVSS,high polyreactivity
8,QVQLVESGGGLVQAGGSLLISCAASGSTFLLNAMGWYRQAPGKERELVAAITGSGTTTYYADSVKGRFTISRDNAKNTVFLHMNSLKPEDTAVYYCAAYAYYHTGDDYWGQGTQVTVSS,high polyreactivity
9,QVQLVESGGGLVQAGGSLLLICADSGITFYGNAMGWYRQAPGKERELVAAISSSGGTTYYADSVKGRFTISRDNAKNTVYLQMNSLKPEDTAVYYCNAVDGIHPYASPSFQQYDYWGQGTQVTVSS,low polyreactivity
10,QVQLVESGGGLVQAGGSLLLNCAASGITFAGNAMGWYRQAPGKERELLAAISGSGGSTSYADSVKGRFTISRDDAKNTVYLQMNSLKPEDTAVYYGSAASRLYHWHALFGSWGQGTQVTVSS,low polyreactivity
11,QVQLVESGGGLVQAGGSLLLSCAASGFSFEKNAMGWYIQEPGKERELVAAISRGGSTYADSVKGRFTISRDNAKNTVYLQMYSRKPVDTAVYYCAADTVYIFSSAINGEFGYWGQGTQVTVSS,low polyreactivity
12,QVQLVESGGGLVQAGGSLLLSCAASGFTFKYYAMGWYRQEPGKERELVAAINRSVGSTYYADSVKGRFTISRDNAKNTVYLQMNSLKPEDTAVYYCNARVRVPVTLHDYWGQGTQVTVSS,high polyreactivity
13,QVQLVESGGGLVQAGGSLLLSCAASGFTFSVYAMGWYRQEPGKERELVAAINFSGGNTFYADSVKGRFTISRDYAKNTVYLQMNSLKPEDSAVYYCAAEDYKITRYVVRWYEYWGQGTQVTVSS,high polyreactivity
14,QVQLVESGGGLVQAGGSLLLSCAASGFTFWSYAMAWYRQAPRKERELVADISWSGGSTHYADSVKGRFTISRDNAKNTVYLQMNSLKPEDTAVYYCARRFLYPYDHWGQGTQVTVSS,high polyreactivity
15,QVQLVESGGGLVQAGGSLLLSCAASGGTLRYYAMGWYRQAPGKEREFVASISRSGGSTYYADSVKGRFTISRDNAKNTVYLQMNSLKPEDTAVYYCAAYWSPGYTTRRGYWGQGTQVTVSS,high polyreactivity
16,QVQLVESGGGLVQAGGSLLLSCAASGITFYGNAKGWDRQAPGKERELVAAITFSGGITYYADSVKGRFTISRDNAKNTVYLQMNRLKPEDTAVYYCATDPIGGWTRPQRYGDDYWGQGTQLTVSS,low polyreactivity
17,QVQLVESGGGLVQAGGSLLLSCAASGLTFYLYAMGWYRQAPGKERELVAPISRRGGSTYYADSVKGRFTISRDNAKNTVYFQMKSLKPEYTAVYYCAGAFYSQTDYKFYYWGQGTQVTVSS,high polyreactivity
18,QVQLVESGGGLVQAGGSLLLSCAASGRIFRWNAMGWYRQAPGKERELVAAIRSRGGSTYYADSVKGRFTISRDNAKNTVYLQMNSLKPEDSAVYYCNARIASYRSIYDYWGQGTQVTVSS,high polyreactivity
19,QVQLVESGGGLVQAGGSLLLSCAASGRTFGYYAMGWYRQAPGKETELVAAISSGGGTYYADSVKGRFTISRDNAKNTVYLQMNSLKPEDTAVYYCAATGWVYWGQFDYWGQGTQVTVSS,low polyreactivity
20,QVQLVESGGGLVQAGGSLLLSCAASGRTILTYALGWNRQAPGKERDLVAAISKRGGSTYYADSVKGRFTISRDNAKNTVYLQRNSLKPEDTAVYYCAADNVNHYGYWGQGTQVTVSS,high polyreactivity
21,QVQLVESGGGLVQAGGSLLLSCAASGRTLFVYDMGWYRQAPGKERELVAAITWGVGSTYYADSVKGRFTISRDNAKNTVYLQLNSLKPEDTAVYYCNAVAIRYYRWYYYWGQGTQVTVSS,high polyreactivity
